Assay results published in EP4725955A1, “PEPTIDE TARGETING C-MET, PHARMACEUTICAL COMPOSITION COMPRISING SAID PEPTIDE AND USE THEREOF” (Nanjing Anji Biotechnology Co., Ltd., priority 2023, dated 2025).
Converted amounts (≈) assume the structure as drawn. Where a SMILES comes first, the peptide text is derived from it. Where no end group is shown, it is not given here. The star is where a group is joined. Paclitaxel(2'-O-succinyl) = CC(=O)O[C@H]1C(=O)[C@@]2(C)[C@H]([C@H](OC(=O)c3ccccc3)[C@]3(O)C[C@H](OC(=O)[C@H](OC(=O)CCC(=O)*)[C@@H](NC(=O)c4ccccc4)c4ccccc4)C(C)=C1C3(C)C)[C@]1(OC(C)=O)CO[C@@H]1C[C@@H]2O; FITC = O=C1OC2(c3ccc(O)cc3Oc3cc(O)ccc32)c2ccc(NC(=S)*)cc21; Acp = not defined here

How the values were obtained:
[1] = target: c-Met positive cell MKN-45 (Homo sapiens, UniProt P08581); assay: Flow cytometry detection of binding of FITC-labelled peptide to c-Met positive cell MKN-45; format: cell-based; conditions: for binding affinity to c-Met positive cell MKN45 compared with P1-AI: alanine scanning, FITC-labelled peptides 10 µM to 0.625 µM, FIG. 12; for affinity to c-Met positive cell MKN45 relative to CM7-1: comparison of EC50 with CM7-1, FITC-labelled peptides tested; for binding to c-Met positive cell MKN45, dose dependence: different peptide concentrations, flow cytometry
Chain of c-Met positive cell MKN-45 (P08581 25-1390): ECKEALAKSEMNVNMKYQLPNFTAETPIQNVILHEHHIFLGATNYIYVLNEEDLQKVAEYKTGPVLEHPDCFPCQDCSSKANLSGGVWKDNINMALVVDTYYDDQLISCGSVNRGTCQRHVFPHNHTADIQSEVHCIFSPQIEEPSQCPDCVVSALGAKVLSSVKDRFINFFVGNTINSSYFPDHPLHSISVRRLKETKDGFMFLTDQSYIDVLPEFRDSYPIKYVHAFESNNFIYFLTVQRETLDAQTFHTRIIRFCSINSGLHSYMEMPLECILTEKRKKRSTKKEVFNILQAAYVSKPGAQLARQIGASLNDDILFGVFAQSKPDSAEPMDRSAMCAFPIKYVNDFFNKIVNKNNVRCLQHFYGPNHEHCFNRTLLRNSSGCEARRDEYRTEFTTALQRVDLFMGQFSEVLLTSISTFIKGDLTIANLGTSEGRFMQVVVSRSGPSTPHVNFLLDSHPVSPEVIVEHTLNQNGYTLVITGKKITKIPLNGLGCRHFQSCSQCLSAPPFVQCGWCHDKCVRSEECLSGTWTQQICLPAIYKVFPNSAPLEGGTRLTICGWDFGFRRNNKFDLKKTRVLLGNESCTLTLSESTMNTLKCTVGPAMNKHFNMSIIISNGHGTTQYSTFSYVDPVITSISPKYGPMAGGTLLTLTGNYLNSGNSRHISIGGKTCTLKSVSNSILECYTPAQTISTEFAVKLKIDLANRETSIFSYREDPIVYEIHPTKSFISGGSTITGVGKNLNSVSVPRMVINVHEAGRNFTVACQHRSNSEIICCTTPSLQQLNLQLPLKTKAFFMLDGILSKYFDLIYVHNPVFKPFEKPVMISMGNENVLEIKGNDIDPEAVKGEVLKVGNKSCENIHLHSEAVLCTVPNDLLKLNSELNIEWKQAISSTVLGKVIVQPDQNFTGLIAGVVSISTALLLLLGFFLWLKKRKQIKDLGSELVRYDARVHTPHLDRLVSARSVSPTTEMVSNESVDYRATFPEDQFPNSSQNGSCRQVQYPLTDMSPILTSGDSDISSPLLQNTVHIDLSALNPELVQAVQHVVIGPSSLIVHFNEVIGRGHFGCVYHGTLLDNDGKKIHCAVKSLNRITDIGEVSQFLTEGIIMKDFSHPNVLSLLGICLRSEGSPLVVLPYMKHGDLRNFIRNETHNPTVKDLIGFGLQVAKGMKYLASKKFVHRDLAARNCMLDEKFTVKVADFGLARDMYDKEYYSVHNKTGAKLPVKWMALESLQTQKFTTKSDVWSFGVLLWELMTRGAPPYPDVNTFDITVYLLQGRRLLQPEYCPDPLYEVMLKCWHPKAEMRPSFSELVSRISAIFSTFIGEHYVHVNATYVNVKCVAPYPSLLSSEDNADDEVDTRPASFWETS
Protocol: MKN 45 cells cultured in a 1640 culture solution (Nanjing Senbeijia Biotechnology Co., Ltd.) were collected, and washed twice with pre-cooled PBS. 1 mL of 1% BSA solution was added into the washed cells, and then the above mixed system was placed on a rotary mixer (Lichen Technology Co., Ltd.) and incubated for 30 min at 4°C. Different concentrations of FITC-P1-AI, FITC-CM7-1, FITC-CM7-1.1, FITC-CM7-1.2, FITC-CM7-1.3, FITC-CM7-1.4, FITC-CM7-1.5 and FITC-CM7-1.6 peptide solutions were respectively added in the dark to obtain multiple groups, and then the mixtures were placed on the rotary mixer and incubated for 1 h at 4°C in the dark. After the incubation was completed, the mixed system of the cells was centrifuged for 5 min at 800 rpm, and then supernatant was discarded. The cells were washed twice with pre-cooled PBS, and the concentration of the cells was adjusted to 1×10^6 cells/mL using PBS. 3 parallel replicate wells were set up for cells in each group, with 0.5 mL prepared per sample; and a flow cytometer was used to detect the binding of the peptide to c-Met positive cell MKN-45, EC50 data and a binding curve were generated. […] Table 2 Binding affinity of peptide to MKN-45
MKN-45 cells cultured in a 1640 culture solution were collected, and washed twice with pre-cooled PBS 1 mL of 1% BSA solution was added into the washed cells, and then the above mixed system was placed on a rotary mixer and incubated for 30-60 min at 4°C. 10 µM of FITC-P1-AI peptide solution and FITC-CM7-1 were respectively added in the dark to form two groups, and the above mixed systems were placed on the rotary mixer and incubated for 1 h at 4°C in the dark. After the incubation was completed, the mixed system of the cells was centrifuged for 5 min at 800 rpm, and then supernatant was discarded. The cells were washed 1-2 times with pre-cooled PBS, and then the concentration of the washed cells was adjusted to 1×10^6 cells/mL by using PBS. 3 parallel replicate wells were set up for cells in each group, with 0.5 mL prepared per sample; and a flow cytometer was used to detect the binding of the peptide to c-Met positive cells.
The MKN-45 cells cultured in a 1640 culture solution were collected, and washed twice with pre-cooled PBS. […] After the incubation was completed, the mixed system of the cells was centrifuged for 5 min at 800 rpm, and then supernatant was discarded. The cells were washed 1-2 times with pre-cooled PBS, and then the concentration of the washed cells was adjusted to 1×10^6 cells/mL by using PBS. 3 parallel replicate wells were set up for cells in each group, with 0.5 mL prepared per sample; and a flow cytometer was used to detect the binding of the peptide to the c-Met positive cell MKN-45. […] Table 4 Sequences of Peptides

[2] = Solubility of drug and drug-peptide conjugate in water (supersaturated solution, HPLC standard curve); format: physicochemical
Protocol: The peak areas of the series standard solutions were detected via HPLC (mobile phase: 0.065% TFA water + 0.05% TFA; chromatographic column: YMC-TriartC18; wavelength: 220 nm), so as to construct a concentration-peak area standard curve, as shown in FIG. 13. In FIG. 13, the horizontal axis represents the concentration, and the longitudinal axis represents the peak area.
The peak area of the sample was detected via HPLC, and the solubility value of the sample in water was calculated by the concentration-peak area standard curve. Table 5 Solubility Value of Sample in Water

[3] = Solubility detection of peptide in ultrapure water (visual); format: physicochemical
Protocol: 13.4 mg of CM7-1 and 15 mg of P1-AI were respectively weighed and dissolved using ultrapure (UP) water (prepared using Youpu Pure Water/Ultrapure Water Manufacturing System (UPR-II-10T)).

[4] = tested on: human hepatic stellate cell LX-2; assay: Specificity: flow cytometry binding of peptide to LX-2 cells that barely express c-Met; format: cell-based; conditions: concentration of up to 10 µM, cells barely expressing c-Met, FIG. 8
Protocol: Human hepatic stellate cells LX-2 cultured in a 1640 culture solution were collected, and washed twice with pre-cooled PBS. 1 mL of 1% BSA solution was added into the washed cells, and then the above mixed system were placed on a rotary mixer and incubated for 30 min at 4°C. 10 µM of FITC-P1-AI peptide solution and FITC-CM7-1 were respectively added in the dark to form two groups, and the above mixed systems were placed on the rotary mixer and incubated for 1 h at 4°C in the dark. After the incubation was completed, the mixed system of the cells was centrifuged for 5 min at 800 rpm, and then supernatant was discarded. The cells were washed twice with pre-cooled PBS, and the concentration of the cells was adjusted to 1×10^6 cells/mL using PBS. 3 parallel replicate wells were set up at concentrations of 1 µM, 5 µM and 10 µM for cells in each group, with 0.5 mL prepared per sample; and a flow cytometer was used to detect the binding of the peptide to LX-2 cells.

[5] = tested on: MKN-45 subcutaneous xenograft tumor; assay: Living imaging of tissue distribution in MKN-45 subcutaneous xenograft tumor mice; format: in vivo, nude mice; conditions: 5 mg/kg via tail vein, tumor about 400 mm^3, FIG. 11
Protocol: In MKN-45 subcutaneous xenograft tumor mice (nude mice were purchased from Changzhou Kavens Laboratory Animal Co., Ltd), 5X10^6 MKN45 cells were subcutaneously implanted into nude mice; and when the volume of the tumor was about 400 mm^3, 5 mg/kg Cy5-P1-AI was injected via a tail vein, and its tissue distribution was analyzed using a living imaging instrument. […] In the figure, a circle area is a tumor site.

[6] = literature values; cited from earlier work
[7] = target: c-Met protein (UniProt P08581 25-932, limits assumed); assay: microscale thermophoresis (MST), FITC-peptide with titrated c-Met protein
Chain of c-Met protein (P08581 25-932 limits assumed): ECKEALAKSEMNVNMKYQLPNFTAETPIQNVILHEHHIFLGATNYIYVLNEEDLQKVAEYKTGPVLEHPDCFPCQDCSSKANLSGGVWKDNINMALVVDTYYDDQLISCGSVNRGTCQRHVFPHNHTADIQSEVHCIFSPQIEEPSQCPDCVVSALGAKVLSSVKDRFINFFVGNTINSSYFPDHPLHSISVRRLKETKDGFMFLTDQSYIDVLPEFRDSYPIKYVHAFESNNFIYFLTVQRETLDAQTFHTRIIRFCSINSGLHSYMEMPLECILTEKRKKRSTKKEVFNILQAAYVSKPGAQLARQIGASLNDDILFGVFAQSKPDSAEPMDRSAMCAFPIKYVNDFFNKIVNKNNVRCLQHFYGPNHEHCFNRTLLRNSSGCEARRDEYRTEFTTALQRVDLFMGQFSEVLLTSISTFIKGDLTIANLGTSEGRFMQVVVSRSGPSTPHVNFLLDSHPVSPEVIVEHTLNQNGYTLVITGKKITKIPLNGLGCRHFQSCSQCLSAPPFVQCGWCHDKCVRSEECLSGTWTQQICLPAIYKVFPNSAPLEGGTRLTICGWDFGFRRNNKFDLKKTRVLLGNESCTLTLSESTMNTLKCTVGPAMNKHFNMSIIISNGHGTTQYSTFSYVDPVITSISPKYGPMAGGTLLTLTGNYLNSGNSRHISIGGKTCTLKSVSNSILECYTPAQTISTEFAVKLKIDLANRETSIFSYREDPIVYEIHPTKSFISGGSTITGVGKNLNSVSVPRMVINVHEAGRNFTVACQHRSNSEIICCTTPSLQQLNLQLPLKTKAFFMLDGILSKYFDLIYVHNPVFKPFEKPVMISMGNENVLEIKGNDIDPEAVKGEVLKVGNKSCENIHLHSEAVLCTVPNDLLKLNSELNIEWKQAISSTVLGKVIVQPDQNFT

[8] = target: T1, c-Met on c-Met positive human gastric cancer cell MKN-45 (human, UniProt P08581 25-1390); assay: flow cytometry, FITC-peptide (0.625-10 µM) on MKN-45 cells
T1 construct: whole, on cells; also called hepatocyte growth factor receptor; HGFR
T1 sequence (P08581 25-1390): as the sequence (P08581 25-1390) above

[9] = target: T1, c-Met on c-Met positive human gastric …; assay: flow cytometry, FITC-peptide on c-Met positive MKN-45 cells

Molecule: ASPYANS [P1-AI-1]
- binding affinity to c-Met positive cell MKN45 compared with P1-AI [1]: reduced

Molecule: RSPAANS [P1-AI-4]
- binding affinity to c-Met positive cell MKN45 compared with P1-AI [1]: increased binding affinity
- binding affinity to c-Met compared with CM7-1 ([1]; conclusion of Example 9): superior

Molecule: DQIAANN [CM7-1.4]
- affinity to c-Met positive cell MKN45 relative to CM7-1 [1]: increased affinity

Molecule: CC(=O)O[C@@]12CO[C@@H]1C[C@H](O)[C@@]1(C)C(=O)[C@H](O)C3=C(C)[C@@H](OC(=O)[C@H](OC(=O)CCC(=O)N[C@@H](CCCNC(=N)N)C(=O)N[C@@H](CO)C(=O)N4CCC[C@H]4C(=O)N[C@@H](Cc4ccc(O)cc4)C(=O)N[C@@H](C)C(=O)N[C@@H](CC(N)=O)C(=O)N[C@@H](CO)C(=O)O)[C@@H](NC(=O)OC(C)(C)C)c4ccccc4)C[C@@](O)([C@@H](OC(=O)c4ccccc4)[C@H]21)C3(C)C [DOC-P1-AI]
- Solubility increasing fold of drug-peptide conjugate compared with drug [2]: 1.62×10^5 fold

Molecule: DQIIANN [CM7-1, DQIIANN, reference compound]
- state in water ([3]; concentration 6 mM): completely cloudy state

Molecule: DAIIANN [CM7-1.2]
- affinity to c-Met positive cell MKN45 relative to CM7-1 [1]: significantly increased affinity
- binding to c-Met positive cell MKN45, dose dependence [1]: dose-dependent

Molecule: FITC-RSPYANS (not fully specified; FITC label) [FITC-P1-AI]
- binding to LX-2 cells [4]: barely binds

Molecule: RAPYANS [P1-AI-2]
- binding affinity to c-Met positive cell MKN45 compared with P1-AI [1]: reduced

Molecule: CC(=O)O[C@H]1C(=O)[C@@]2(C)[C@H]([C@H](OC(=O)c3ccccc3)[C@]3(O)C[C@H](OC(=O)[C@H](OC(=O)CCC(=O)N[C@@H](CCCNC(=N)N)C(=O)N[C@@H](CO)C(=O)N4CCC[C@H]4C(=O)N[C@@H](Cc4ccc(O)cc4)C(=O)N[C@@H](C)C(=O)N[C@@H](CC(N)=O)C(=O)N[C@@H](CO)C(=O)O)[C@@H](NC(=O)c4ccccc4)c4ccccc4)C(C)=C1C3(C)C)[C@]1(OC(C)=O)CO[C@@H]1C[C@@H]2O [PTX-P1-AI] ({Paclitaxel(2'-O-succinyl)}-RSPYANS-OH; N-terminus assumed)
- Solubility increasing fold of drug-peptide conjugate compared with drug [2]: 46.33 fold

Molecule: Cy5-RSPYANS [Cy5-P1-AI]
- tissue distribution by living imaging [5]: enriched in cancer sites highly expressing c-Met

Molecule: CCc1c2c(nc3ccc(OCC(=O)N4CCCCC4)cc13)-c1cc3c(c(=O)n1C2)COC(=O)[C@]3(O)CC [7-ethyl-10-[2-oxo-2-(piperidinyl)ethoxy]camptothecin]
- solubility in water [6]: about 6.22 µg/mL

Molecule: RSAYANS [P1-AI-3]
- binding affinity to c-Met positive cell MKN45 compared with P1-AI [1]: reduced

Molecule: RSPYANS [P1-AI, RSPYANS]
- state in water ([3]; concentration 19 mM): clear solution

Molecule: DQAIANN [CM7-1.3]
- affinity to c-Met positive cell MKN45 relative to CM7-1 [1]: significantly increased affinity
- binding to c-Met positive cell MKN45, dose dependence [1]: dose-dependent

Molecule: CC[C@@]1(O)C(=O)OCc2c1cc1n(c2=O)Cc2cc3ccccc3nc2-1 [CPT, camptothecin]
- solubility at 15 min ([2]; thermodynamic from solid): 0.084 µg/mL (≈ 0.241 µM)

Molecule: DQIIANA [CM7-1.6]
- affinity to c-Met positive cell MKN45 relative to CM7-1 [1]: increased affinity

B1: FITC-P1-AI (FITC-RSPYANS) (peptide)
peptide: {FITC-Acp}-RSPYANS
modifications: reading uncertain
notes: Synthetic 7-mer made by solid-phase synthesis; Molecular weight 1296.36
- Kd [7]: 41.1 nM
- fold increase of affinity against CM7-1 [7]: 30.9 fold

B2: FITC-P1-AI-6 (FITC-RSPYAAS) (peptide)
peptide: {FITC}-RSPYAAS
notes: Alanine variant of P1-AI at position 6; also called P1-Al-6
- binding result [8]: binds

Molecule: {FITC}-RSPAANS (Alanine variant of P1-AI at position 4) [FITC-P1-AI-4 (FITC-RSPAANS)]
- binding result [8]: binds

Molecule: {FITC}-RAPYANS (Alanine variant of P1-AI at position 2) [FITC-P1-AI-2 (FITC-RAPYANS)]
- binding result [8]: binds

Molecule: {FITC}-ASPYANS (Alanine variant of P1-AI at position 1) [FITC-P1-AI-1 (FITC-ASPYANS)]
- binding result [8]: binds

Molecule: {FITC}-RSAYANS (Alanine variant of P1-AI at position 3) [FITC-P1-AI-3 (FITC-RSAYANS)]
- binding result [8]: binds

B3: FITC-CM7-1 (FITC-DQIIANN) (peptide)
peptide: {FITC}-DQIIANN
notes: tested as the FITC-labelled form; Molecular weight 1289.36
- EC50 [9]: 9500 nM
- Kd [7]: 1270 nM

Molecule: {FITC}-DQAIANN (Alanine variant of CM7-1 at position 3) [FITC-CM7-1.3 (FITC-DQAIANN)]
- EC50 [9]: 45.6 nM

Molecule: {FITC}-DQIIAAN (Alanine variant of CM7-1 at position 6) [FITC-CM7-1.5 (FITC-DQIIAAN)]
- EC50 [9]: 15200 nM

Molecule: {FITC}-DQIAANN (Alanine variant of CM7-1 at position 4) [FITC-CM7-1.4 (FITC-DQIAANN)]
- EC50 [9]: 5370 nM

Molecule: {FITC}-AQIIANN (Alanine variant of CM7-1 at position 1) [FITC-CM7-1.1 (FITC-AQIIANN)]
- EC50 [9]: 2070 nM

Molecule: {FITC}-DQIIANA (Alanine variant of CM7-1 at position 7) [FITC-CM7-1.6 (FITC-DQIIANA)]
- EC50 [9]: 5050 nM

Molecule: {FITC}-DAIIANN (Alanine variant of CM7-1 at position 2) [FITC-CM7-1.2 (FITC-DAIIANN)]
- EC50 [9]: 1880 nM
